Laboratory results: the supplement of paper PMC10567573
± gives the standard deviation.

Assay: protein stability index of a GFP-peptide fusion (GPS, HEK-293T) (PSI 1-6); higher = more stable
[1] = treatment: DMSO, c terminus: a fixed tail appended
[2] = treatment: MLN4924 1 uM, 8 h, c terminus: a fixed tail appended
[3] = treatment: DMSO, c terminus: native
[4] = treatment: MLN4924 1 uM, 8 h, c terminus: native
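Note: 24-mer peptide tiles fused after GFP, lentivirally expressed, FACS-sorted into six equal bins by GFP/DsRed ratio, decoded by Illumina sequencing, PSI is the read-weighted mean bin number.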

| Sequence | protein stability index [1] | protein stability index [2] | protein stability index [3] | protein stability index [4] |
| --- | --- | --- | --- | --- |
| DHGVPEHPTPFLAFLRRVKTCNPP [PTPRD] | 3.16 ± 0.042 | 3.16 ± 0.25 | – | – |
| KKLHKIQNKAQRQKDLIMKVENLT [TAF7L] | 3.23 ± 0.17 | 3.37 ± 0.12 | – | – |
| GQLRVFGAGLLSSISELKHALSGH [TPH1] | 2.24 ± 0.27 | 2.13 ± 0.19 | – | – |
| KAEELDRRERELQHAALGGTATRQ [SCAMP3] | 5.15 ± 0.12 | 5.21 ± 0.22 | – | – |
| TISVNQTRVNLSSDTESTDLPSST [DLC1] | 4.11 ± 0.15 | 4.41 ± 0.23 | – | – |
| KLAIIPGGGGTQRLPRAIGMSLAK [AUH] | 2.79 ± 0.05 | 2.88 ± 0.52 | – | – |
| AACLLQLKGVKQACCEFLESQLDP [KLHL12] | 2.97 ± 0.45 | 2.88 ± 0.33 | – | – |
| RLVKEGRFVPSNPIGILTTSYCEL [PPTC7] | 2.39 ± 0.21 | 2.12 ± 0.47 | – | – |
| KVWDQVKASNPDLKLWEIGKIIGG [SMARCE1] | 2.45 ± 0.32 | 2.36 ± 0.23 | – | – |
| RLFLDGEEEKEWAFEESKIDEHHF [AASDHPPT] | 4.37 ± 0.26 | 4.42 ± 0.21 | – | – |
| NVNSNLITWNRVVLLHGPPGTGKT [TRIP13] | 2.45 ± 0.21 | 2.53 ± 0.14 | – | – |
| DLRKHRRKLLSPVSREENREDKAT [PPFIA4] | 4.52 ± 0.18 | 4.84 ± 0.3 | – | – |
| LAKQPGVSVNAQTLDGRTPLHLAA [RIPK4] | 3.99 ± 0.76 | 4.02 ± 0.087 | – | – |
| QLSRLNITYPMLFKLTNKNSDRMT [UFD1] | 2.33 ± 0.14 | 2.58 ± 0.42 | – | – |
| FSSLNHIVEKRVLAHLAPLFDNPK [INTS3] | 2.27 ± 0.18 | 2.4 ± 0.44 | – | – |
| PTVKDLIGGFTALHYAAMHGRARI [ASB7] | 2.56 ± 0.47 | 2.4 ± 0.43 | – | – |
| GEIETIARFGSGPCKTRDDEPVCG [APMAP] | 4.66 ± 0.47 | 5.13 ± 0.27 | – | – |
| GHGSHSFIYYENMLLGVPRLRQLK [PKD2L1] | 2.17 ± 0.12 | 2.27 ± 0.034 | – | – |
| LFEGMIWFLVPISSVICNDITAYL [CDS1] | 3.91 ± 0.42 | 3.38 ± 0.86 | – | – |
| ETVTVTVGPAEPTLVNFHLKRSIP [CPN1] | 3.02 ± 0.3 | 3.16 ± 0.2 | – | – |
| LEEAKKMEMAKFRYILPVYGICRE [RIPK4] | 2.26 ± 0.23 | 2.33 ± 0.31 | – | – |
| TFIPLEPLPQIPNLPFWVKEKANS [SPATS1] | 2.81 ± 0.19 | 3.04 ± 0.15 | – | – |
| QVKSRQNKTNKNSVSSCDQEHQSA [SMOC2] | 5.1 ± 0.32 | 5.34 ± 0.16 | – | – |

| Sequence | protein stability index [1] | protein stability index [2] | protein stability index [3] | protein stability index [4] |
| --- | --- | --- | --- | --- |
| IMTVKEDQFSALGLDPCLLEDELD [SLC6A17] | 4.45 ± 0.33 | 4.46 ± 0.3 | – | – |
| GDKYEHHSYMGMRGFCAFLGSWLV [POMT2] | 2.23 ± 0.57 | 1.73 ± 0.29 | – | – |
| GSNRSGSDRRKEKDPKAGDSKSGG [DVL3] | 5.63 ± 0.21 | 5.47 ± 0.23 | – | – |
| LYYYMTQTEELKYSIDQEFLKEYF [NLN] | 2.74 ± 0.85 | 2.39 ± 0.62 | – | – |
| HEVLLCSDLVKAYQRCVSAAHKG [CHCHD6] | – | – | 2.56 ± 0.75 | 2.27 ± 0.45 |
| LSRKVAELVHFLLLKYRAREPVTK [MAGEA3] | 2.97 ± 0.42 | 2.44 ± 0.43 | – | – |
| FIAVTSYQNHKITQLKIENNPFAK [TBX5] | 2.12 ± 0.28 | 2.27 ± 0.53 | – | – |
| LLKQGYNKTLLRLRLRKERVSDVQ [PKD2L1] | 2.35 ± 0.28 | 2.44 ± 0.27 | – | – |
| GCALTTFSVLEGEKNNHRAKDLRA [SOAT1] | 3.49 ± 0.52 | 3.83 ± 0.63 | – | – |
| DIWSTACMAFELATGDYLFEPHSG [SRPK2] | 3.2 ± 0.24 | 3.39 ± 0.47 | – | – |
| KIMADIRAQYDELARKNREELDKY [KRT18] | 3.07 ± 0.15 | 3.19 ± 0.35 | – | – |
| EMRQALQALLKENRLLQEENRTLQ [CBY2] | 2.53 ± 0.45 | 2.65 ± 0.41 | – | – |
| EEVVYDLSIRGFNKETAAACVEK [TSN] | – | – | 4.39 ± 0.14 | 4.38 ± 0.27 |
| VGEKNCTGPPCDRQWTVSDWGPCS [ADAMTSL2] | 3.53 ± 0.3 | 3.32 ± 0.66 | – | – |
| AFGNPKFALQGLPLNCAPCPRRSE [IRX6] | 4.202 ± 0.038 | 4.08 ± 0.13 | – | – |
| SPLTLAACGGHVELAALLIERGAS [ANKRD17] | 2.48 ± 0.33 | 2.48 ± 0.31 | – | – |
| DEKYGVPSLEELGFDTDGLSSAVW [CRY1] | 3.65 ± 0.22 | 3.86 ± 0.45 | – | – |
| EWIKLDYHRRHNPKTNEDFEFLYN [IQUB] | 2.12 ± 0.19 | 2.24 ± 0.18 | – | – |
| TVEKDKVTGETRVLSSTTLLPRQP [PALM] | 4.86 ± 0.23 | 4.87 ± 0.084 | – | – |
| KDAPCYESDTDIYETVAAATSEST [DRICH1] | 5.4 ± 0.15 | 5.38 ± 0.1 | – | – |
| TQSNRTSRLIGKKMNRSVSLTIY [WEE1] | – | – | 2.19 ± 0.14 | 2.27 ± 0.15 |
| LDMSQNVSLVTAELSKDAQASAAP [SLC29A1] | 5.16 ± 0.12 | 5.08 ± 0.095 | – | – |
| REWRCCPGHSGVSCEEVAASSASL [EMID1] | 3.74 ± 0.089 | 3.55 ± 0.31 | – | – |

| Sequence | protein stability index [1] | protein stability index [2] | protein stability index [3] | protein stability index [4] |
| --- | --- | --- | --- | --- |
| TIGASFMTKTVQYQNELHKFLIWD [RAB22A] | 2.5 ± 0.45 | 2.01 ± 0.16 | – | – |
| GGQRSTPLIIAARNGHAKVVRLLL [FEM1B] | 2.16 ± 0.2 | 2.23 ± 0.44 | – | – |
| EEGDEQQRLLNTPRRKKLKSTSKY [GMCL1] | 4.75 ± 0.12 | 4.9 ± 0.39 | – | – |
| ILVLTRPVTRNERHSYQVYRQPIP [NET1] | 2.33 ± 0.51 | 2.11 ± 0.38 | – | – |
| FYHYFEDKENIYILLEYCSRRSMA [PLK2] | 2.34 ± 0.53 | 2.21 ± 0.27 | – | – |
| AGLCMDSPSPMDPHMAEQTFEQAI [CDC25B] | 4.5 ± 0.47 | 4.6 ± 0.15 | – | – |
| YHYGVASCEACKAFFKRTIQGNIE [ESRRG] | 2.43 ± 0.19 | 2.65 ± 0.58 | – | – |
| KGTILKASVDYIRKLQKEQQRSKD [TFE3] | 3.41 ± 0.19 | 3.79 ± 0.38 | – | – |
| QEMVVSSLVIGALLASLTGGVLID [SLC2A12] | 3.61 ± 0.39 | 3.45 ± 0.73 | – | – |
| DIALNKHRSRRKWCFWNSSPAVA [RHOBTB1] | – | – | 2.46 ± 1.4 | 2.87 ± 1.8 |
| KLQREMERREALCRQLSESESSLE [CCDC6] | 4.68 ± 0.18 | 4.85 ± 0.16 | – | – |
| SPEVLRKDPYGKPVDLWACGVILY [CAMK2A] | 2.67 ± 0.56 | 2.49 ± 0.49 | – | – |
| LAAVLVEPKLHTPMYFFLGNLSVL [OR3A1] | 3.56 ± 0.33 | 3.57 ± 0.57 | – | – |
| FYGLLFTSENLKLVHIVCHKKTTH [DFFB] | 2.73 ± 0.56 | 2.58 ± 0.31 | – | – |
| LPPSPRFLVMKGQEGAASKVLGRL [SLC2A12] | 3.34 ± 0.28 | 3.48 ± 0.83 | – | – |
| AQRVRAAMFPETLDEGMQIPSTQF [CTNNB1] | 3.62 ± 0.23 | 3.65 ± 0.16 | – | – |
| SSKSDADSGFLGLRPTSVDPALRR [NOP53] | 4.51 ± 0.2 | 4.51 ± 0.22 | – | – |
| PHKTFRKLRLFDTPHTPKSLLSKA [WEE1] | 2.82 ± 0.35 | 2.98 ± 0.41 | – | – |
| DGGLLSGNEKITMQNLNDRLASYL [KRT15] | 3.12 ± 0.16 | 3.09 ± 0.2 | – | – |
| HFRPRFHPLPTVIIVNLLWFIHLV [TMEM192] | 2.63 ± 0.48 | 2.82 ± 0.79 | – | – |
| QTGGDVNVEMDAAPGVDLSRILNE [KRT16] | 4.97 ± 0.31 | 5.18 ± 0.085 | – | – |
| FVWYTPPTFMIAVFLPIVVLIFKS [STEAP1] | 3.33 ± 1.6 | 2.81 ± 1.2 | – | – |
| KSKLTYMCRVDLRGHMPEWYTKSF [DLC1] | 2.68 ± 0.65 | 2.43 ± 0.29 | – | – |

| Sequence | protein stability index [1] | protein stability index [2] | protein stability index [3] | protein stability index [4] |
| --- | --- | --- | --- | --- |
| FTLNFFRSGIQFGSWGSFQLPGLL [CLCN6] | 2.93 ± 0.36 | 3.02 ± 0.97 | – | – |
| TGREMHGKNWSKLCKDCQVIDGRN [TPPP] | 3.14 ± 0.16 | 3.49 ± 0.11 | – | – |
| NFYYFSLIPKTWYSAEQFCVSRNS [CD207] | 2.6 ± 0.53 | 2.3 ± 0.45 | – | – |
| FLLDVIPVDGARYRWQGRRWEPSG [TBX6] | 1.81 ± 0.33 | 2.4 ± 0.3 | – | – |
| SLHDHDGSSGASDQDTLAPLPHPG [DVL3] | 5.33 ± 0.25 | 5.19 ± 0.33 | – | – |
| LQGLSLIVTWFMLLYAQGLLAIQF [SLC19A2] | 3.16 ± 0.26 | 3.16 ± 0.26 | – | – |
| DSSIIRTTQDLFAINRDTAFPGAS [RHOBTB3] | 3.91 ± 0.23 | 3.94 ± 0.23 | – | – |
| YFFLCQPFREILCKKLHIPLKAQN [P2RY14] | 2.62 ± 0.75 | 1.99 ± 0.25 | – | – |
| ELDLRLRLAQPSSPEVLTPQLSPG [RTN2] | 4.23 ± 0.24 | 4.22 ± 0.15 | – | – |
| ADSETPTIQKGSYTFVPWLLSFKR [TNFSF13B] | 2.52 ± 0.28 | 2.58 ± 0.26 | – | – |
| HGRGTEVLLEEPLPLETARESPSF [ZNF263] | 4.69 ± 0.28 | 4.81 ± 0.25 | – | – |
| LGVCASGLLIYRDRLRINRFAWPK [EPB41L3] | 2.06 ± 0.046 | 2.4 ± 0.26 | – | – |
| LRVSPAEQPRLEFLMRKCGWFVRE [FBXO33] | 1.97 ± 0.12 | 2.08 ± 0.38 | – | – |
| DVLNDAIFDEDHDEMVIVKDIDMF [GCH1] | 3.5 ± 0.15 | 3.62 ± 0.2 | – | – |
| AADRHINFCKEQAARISNKGKFST [ZC2HC1A] | 2.57 ± 0.28 | 2.85 ± 0.14 | – | – |
| VIFGVELPGNEEFQVVKDAVLDCL [TENT5D] | 2.23 ± 0.41 | 2.25 ± 0.24 | – | – |
| KINLQGDIVDRGSTNLGVNQAGFT [ADD1] | 3.74 ± 0.25 | 3.83 ± 0.19 | – | – |
| TPSFSGDSSSSCSDHCITSSDMMD [VDR] | 5.11 ± 0.28 | 5.11 ± 0.12 | – | – |
| SGPAASEHSHRSHHSLASSLRSHH [DVL3] | 3.92 ± 0.16 | 3.91 ± 0.33 | – | – |
| GTDGYMPRELASMSLVLHGNNLLV [KLHDC10] | 2.72 ± 0.68 | 2.35 ± 0.56 | – | – |
